Patent EP4803542A2 (Sanofi Biotechnology, dated 2026)

Molecular target: T1, human IL-1R3 expressed on cells (SK-MEL-30 and other human cell lines) (human, UniProt Q9NPH3 21-570)
T1 construct: whole, on cells; also called hIL1R3; IL-1RAcP
T1 sequence (looked up): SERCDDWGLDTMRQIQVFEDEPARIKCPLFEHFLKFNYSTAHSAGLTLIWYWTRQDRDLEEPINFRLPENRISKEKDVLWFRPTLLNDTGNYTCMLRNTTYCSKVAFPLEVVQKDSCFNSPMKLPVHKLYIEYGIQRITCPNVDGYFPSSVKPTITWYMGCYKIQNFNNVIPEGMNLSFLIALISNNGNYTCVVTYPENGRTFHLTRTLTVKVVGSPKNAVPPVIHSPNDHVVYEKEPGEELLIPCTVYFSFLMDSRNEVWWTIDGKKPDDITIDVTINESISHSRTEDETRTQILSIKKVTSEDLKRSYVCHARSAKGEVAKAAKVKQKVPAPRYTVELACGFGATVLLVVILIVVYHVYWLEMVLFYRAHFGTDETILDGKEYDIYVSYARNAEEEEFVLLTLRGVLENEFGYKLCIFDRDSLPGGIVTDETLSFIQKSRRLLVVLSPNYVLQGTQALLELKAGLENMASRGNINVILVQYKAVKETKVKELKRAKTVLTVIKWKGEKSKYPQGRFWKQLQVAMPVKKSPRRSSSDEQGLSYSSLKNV
Assay: flow cytometry on the high-IL-1R3-expressing cell line SK-MEL-30

EC50: 0.307 µg/mL
B1: MAB-16-0030, humanized anti-IL-1R3 IgG1-LALA antibody (antibody, V domains shown)
VH: EVQLEESGGRLVQPGTSLRLSCAVSGFSLSSYDMSWVRQAPGKGLEWVSTIYIGGTTAYASWPKGRFTISKTNSKNTLYLQMNSLRAEDTAVYFCARLQGANYYNSLALWGQGTLVTVSS
VL: DVQMTQSPSSLSASVGDRVTITCQASQSIYSFLSWYQQKPGQAPKLLIYAASDLESGVPSRFSGSGSGTDFTLTISSLQPEDFATYYCQCNYIIDYGAFGQGTKVVIKR
notes: Humanized IgG1 with L234A and L235A (IgG1-LALA); also called anti-hIL-1R3 antibody MAB-16-0030; IgG1-LALA version of MAB-16-0030
